Laboratory results as given in the supplement of paper PMC5998384.

Experiments:
HeLa Kyoto [1] = test: solubility change mitosis vs G1/S (difference of NP-40 vs SDS log2 ratios) (log2 ratio difference); higher = more soluble in mitosis
HeLa Kyoto [2] = test: solubility in G1/S (NP-40 vs SDS abundance) (log2 ratio); higher = more soluble; settings: cell cycle stage: G1/S
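Throughout, for solubility change mitosis vs G1/S (difference of NP-40 vs SDS log2 ratios): synchronized HeLa Kyoto cells (double thymidine block for G1/S, nocodazole release for mitosis), protein amounts in NP-40 versus SDS lysates quantified by mass spectrometry, three biological replicates.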
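Throughout, for solubility in G1/S (NP-40 vs SDS abundance): HeLa Kyoto cells arrested at G1/S by double thymidine block, proteins quantified by TMT10plex mass spectrometry in mild NP-40 versus SDS extracts, three biological replicates.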

Sequence | solubility change mitosis (log2) (HeLa Kyoto [1]) | solubility in G1/S (log2) (HeLa Kyoto [2])
MTQQPQDDFDRSVEDAQAWMKAVQDQLQVNDNTQGPRAALEARLWETEKICQLEPEGRVRVDLVLRMAEALLACCPGDQKPGILARLKDIKAQWEETVTYMTHCHSRIEWVWLHWSEYLLARDEFYRWFQKMMVTLEPHIELQLGLKEKQWQLSHAQVLLHNVDNQAVLLDRLLEEAASLFNRIGDPSVDEDAQKRMKAEYDAVKAKAQKRVDLLEQVAREHEEYQAGVDEFQLWLKAVVEKVNGCLGRNCKLPITQRLSTLQDIAKDFPRGEESLETLEEQSAGVIRNTSPLGAEKITGELEEMRKVLEKLRALWEEEEERLRGLLRSRGAWEQQIKQLEAELSEFRMVLQRLAQEGLQPAAKAGTEDELVAHWRRYSATRAALASEEPRVDRLQAQLKELIVFPHNLKPLSDSVIATIQEYQSLKVKSARLRNAAAVELWQHFQRPLQDLQLWKALAQRLLEVTASLPDLPSLHTFLPQIEAALMESSRLKELLTMLQLKKDLLIGIFGQERATALLEQVAGSMRDRDLLHNSLLQRKSKLQSLLAQHKDFGAAFEPLQRKLLDLQVRVQAEKGLQRDLPGKQAQLSRLQGLQEEGLDLGAQMEAARPLVQENPNHQHKMDQLSSDFQALQRSLEDLVDRCRQSVQEHCTFSHQLLELRQWIVVTTQKLEAHRGEAGPGDAESQEAEFERLVAEFPEKEAQLSLVEAQGWLVMEKSSPEGAAVVQEELRELAESWRALRLLEESLLSLIRNWHLQRMEVDSGKKMVFTNNIPKSGFLINPMDPIPRHRRRANLLQEEEGSHEDFSQLLRNFGQWLQVENSKLVRIIAMRTSTAEDLRTRKSKLQELEARVPEGQHLFENLLRLGPARGTSDELEDLRYQWMLYKSKLKDSGHLLTQSSPGEPTGFQKTRRWRGLGSLFRRACCVALPLQLLLLLFLLLLFLLPIREEDRSCTLANNFARSFTLMLRYNGPPPT [SYNE3] | 0.336 | -0.89
MSGRSVRAETRSRAKDDIKKVMAAIEKVRKWEKKWVTVGDTSLRIFKWVPVTDSKEKEKSKSNSSAAREPNGFPSDASANSSLLLEFQDENSNQSSVSDVYQLKVDSSTNSSPSPQQSESLSPAHTSDFRTDDSQPPTLGQEILEEPSLPSSEVADEPPTLTKEEPVPLETQVVEEEEDSGAPPLKRFCVDQPTVPQTASES [BCL7B] | 0.0126 | 0.295
MSRKISKESKKVNISSSLESEDISLETTVPTDDISSSEEREGKVRITRQLIERKELLHNIQLLKIELSQKTMMIDNLKVDYLTKIEELEEKLNDALHQKQLLTLRLDNQLAFQQKDASKYQELMKQEMETILLRQKQLEETNLQLREKAGDVRRNLRDFELTEEQYIKLKAFPEDQLSIPEYVSVRFYELVNPLRKEICELQVKKNILAEELSTNKNQLKQLTETYEEDRKNYSEVQIRCQRLALELADTKQLIQQGDYRQENYDKVKSERDALEQEVIELRRKHEILEASHMIQTKERSELSKEVVTLEQTVTLLQKDKEYLNRQNMELSVRCAHEEDRLERLQAQLEESKKAREEMYEKYVASRDHYKTEYENKLHDELEQIRLKTNQEIDQLRNASREMYERENRNLREARDNAVAEKERAVMAEKDALEKHDQLLDRYRELQLSTESKVTEFLHQSKLKSFESERVQLLQEETARNLTQCQLECEKYQKKLEVLTKEFYSLQASSEKRITELQAQNSEHQARLDIYEKLEKELDEIIMQTAEIENEDEAERVLFSYGYGANVPTTAKRRLKQSVHLARRVLQLEKQNSLILKDLEHRKDQVTQLSQELDRANSLLNQTQQPYRYLIESVRQRDSKIDSLTESIAQLEKDVSNLNKEKSALLQTKNQMALDLEQLLNHREELAAMKQILVKMHSKHSENSLLLTKTEPKHVTENQKSKTLNVPKEHEDNIFTPKPTLFTKKEAPEWSKKQKMKT [PIBF1] | 0.297 | 0.069
